For the assay, the target named is T1, GST-yNpl4 (full length, wild type) (Saccharomyces cerevisiae, UniProt P33755 1-580).
T1 construct: Npl4 of Saccharomyces cerevisiae (yNpl4), full length; codon-optimized synthetic cDNA; also called GST-Npl4; source: E. coli Rosetta (DE3) (pGEX-6P1), purified (Glutathione Sepharose FF, Resource Q); not shown: GST, N-terminal, kept
T1 sequence (looked up): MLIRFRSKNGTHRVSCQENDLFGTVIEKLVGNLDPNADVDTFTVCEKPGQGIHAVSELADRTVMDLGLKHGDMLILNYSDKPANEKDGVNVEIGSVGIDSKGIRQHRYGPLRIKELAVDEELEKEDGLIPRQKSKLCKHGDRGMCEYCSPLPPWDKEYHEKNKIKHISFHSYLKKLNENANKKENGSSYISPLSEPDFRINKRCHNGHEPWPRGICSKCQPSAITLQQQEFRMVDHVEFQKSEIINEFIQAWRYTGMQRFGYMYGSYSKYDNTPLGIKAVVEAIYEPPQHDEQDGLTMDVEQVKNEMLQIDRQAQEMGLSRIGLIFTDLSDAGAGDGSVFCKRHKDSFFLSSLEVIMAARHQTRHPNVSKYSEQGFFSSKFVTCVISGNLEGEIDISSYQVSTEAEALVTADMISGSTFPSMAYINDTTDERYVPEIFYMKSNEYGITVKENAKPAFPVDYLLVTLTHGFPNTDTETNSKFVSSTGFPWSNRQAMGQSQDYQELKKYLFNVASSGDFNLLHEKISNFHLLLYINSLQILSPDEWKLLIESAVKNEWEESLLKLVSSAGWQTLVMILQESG
The assay can be described thus: pull-down; GST-yNpl4 (0.5 μM) on glutathione beads with 0.5 μM yUfd1 alone; full-length proteins; SDS-PAGE, Coomassie (Fig. 3e). To be noted: both partners purified.

B1: yUfd1 (full length, untagged) (natural protein, Saccharomyces cerevisiae, UniProt P53044 1-361, looked up)
chain: MFSGFSSFGGGNGFVNMPQTFEEFFRCYPIAMMNDRIRKDDANFGGKIFLPPSALSKLSMLNIRYPMLFKLTANETGRVTHGGVLEFIAEEGRVYLPQWMMETLGIQPGSLLQISSTDVPLGQFVKLEPQSVDFLDISDPKAVLENVLRNFSTLTVDDVIEISYNGKTFKIKILEVKPESSSKSICVIETDLVTDFAPPVGYVEPDYKALKAQQDKEKKNSFGKGQVLDPSVLGQGSMSTRIDYAGIANSSRNKLSKFVGQGQNISGKAPKAEPKQDIKDMKITFDGEPAKLDLPEGQLFFGFPMVLPKEDEESAAGSKSSEQNFQGQGISLRKSNKRKTKSDHDSSKSKAPKSPEVIEID
notes: Ufd1 of Saccharomyces cerevisiae (yUfd1), full length; codon-optimized synthetic cDNA; removal of GST by HRV3C is surmised; also called untagged Ufd1; source: E. coli Rosetta (DE3) (pGEX-6P1), purified
Take B1: the binding result is “binds”.

The values are drawn from paper PMC6910952 (Nature Communications, 2019).
